Among the data in patent publication US20170298425 are activity values, retold here.

What all share (test): cell_activity
Data set [1] deals with TcI38 (bacteriophage lambda) (UniProt P03034). As to conditions: GFP derepression fold change 32.4 to 40 C, E. coli; SEM 160.
For data set [2], the target named is TcI (cI857, A67T) (bacteriophage lambda) (UniProt P03034). As to conditions: GFP derepression fold change 34.2 to 40 C, E. coli; SEM 404; text gives >1432.
Data set [3] addresses TcI42 (bacteriophage lambda) (UniProt P03034). As to conditions: GFP derepression fold change 32.4 to 45.7 C, E. coli; SEM 444.
Data set [4] deals with TlpA39 (Salmonella enterica). As to conditions: GFP derepression fold change 31.4 to 44.6 C, E. coli; SEM 434.
The subject of data set [5] is TlpA36 (Salmonella enterica). As to conditions: GFP derepression fold change 31.4 to 44.6 C, E. coli; SEM 63.
Data set [6] deals with TlpA (in cell) (Salmonella enterica). As to conditions: GFP derepression fold change 31.4 to 44.6 C, E. coli; SEM 45.

Consider lambda tandem pR/pL operator/promoter, for which the results for the activity in data set [1], in data set [2] and in data set [3] were 1030 fold, 1430 fold and 1690 fold, respectively.

With pTlpA operator/promoter, 52 bp, the activity in data set [4] was found to be 1520 fold; in data set [5] it was 370 fold; in data set [6], 355 fold.
